From the RNAGym collection of RNA variant scans (doi:10.1021/acssynbio.7b00057)

B1: Pistol ribozyme (parent)
chain: GGGUCGUUGUUCCAUAAUCGCGUGGAUAUGGCACGCAAGUUUCUACCGGGCACCGUAAAUGUCCGACUGGAGCCGUUCGGGCGGCUAUAAACAGACCUCAGGCCCGAAGCGUGGCGGCACCUGCCGCCGGUGGUAAAAAAGAUCGGAAGAGCACACGUCU

Variants of: B1
Assay: aptazyme ON/OFF ratio, guanine; higher = stronger switching; co-transcriptional cleavage with and without guanine

Row | Variant | aptazyme ON/OFF ratio
1 | GGGUCGAUACUGGAUAAUCGCGUGGAUAUGGCACGCAAGUUUCUACCGGGCACCGUAAAUGUCCGACUGGAGCCGUUCGGGCGGCUAUAAACAGACCUCAGGCCCGAAGCGUGGCGGCACCUGCCGCCGGUGGUAAAAAAGAUCGGAAGAGCACACGUCU [U7A G9A U10C C12G C13G] | 1.17
2 | GGGUCGAUACUGAAUAAUCGCGUGGAUAUGGCACGCAAGUUUCUACCGGGCACCGUAAAUGUCCGACUGGAGCCGUUCGGGCGGCUAUAAACAGACCUCAGGCCCGAAGCGUGGCGGCACCUGCCGCCGGUGGUAAAAAAGAUCGGAAGAGCACACGUCU [U7A G9A U10C C12G C13A] | 1.15
3 | GGGUCGAUACUGUAUAAUCGCGUGGAUAUGGCACGCAAGUUUCUACCGGGCACCGUAAAUGUCCGACUGGAGCCGUUCGGGCGGCUAUAAACAGACCUCAGGCCCGAAGCGUGGCGGCACCUGCCGCCGGUGGUAAAAAAGAUCGGAAGAGCACACGUCU [U7A G9A U10C C12G C13U] | 1.2
4 | GGGUCGAUACUUGAUAAUCGCGUGGAUAUGGCACGCAAGUUUCUACCGGGCACCGUAAAUGUCCGACUGGAGCCGUUCGGGCGGCUAUAAACAGACCUCAGGCCCGAAGCGUGGCGGCACCUGCCGCCGGUGGUAAAAAAGAUCGGAAGAGCACACGUCU [U7A G9A U10C C12U C13G] | 1.12
5 | GGGUCGAUACUUAAUAAUCGCGUGGAUAUGGCACGCAAGUUUCUACCGGGCACCGUAAAUGUCCGACUGGAGCCGUUCGGGCGGCUAUAAACAGACCUCAGGCCCGAAGCGUGGCGGCACCUGCCGCCGGUGGUAAAAAAGAUCGGAAGAGCACACGUCU [U7A G9A U10C C12U C13A] | 1.08
6 | GGGUCGAUACUCCAUAAUCGCGUGGAUAUGGCACGCAAGUUUCUACCGGGCACCGUAAAUGUCCGACUGGAGCCGUUCGGGCGGCUAUAAACAGACCUCAGGCCCGAAGCGUGGCGGCACCUGCCGCCGGUGGUAAAAAAGAUCGGAAGAGCACACGUCU [U7A G9A U10C] | 1.96
7 | GGGUCGAUACUAGAUAAUCGCGUGGAUAUGGCACGCAAGUUUCUACCGGGCACCGUAAAUGUCCGACUGGAGCCGUUCGGGCGGCUAUAAACAGACCUCAGGCCCGAAGCGUGGCGGCACCUGCCGCCGGUGGUAAAAAAGAUCGGAAGAGCACACGUCU [U7A G9A U10C C12A C13G] | 1.22
8 | GGGUCGAUACUAAAUAAUCGCGUGGAUAUGGCACGCAAGUUUCUACCGGGCACCGUAAAUGUCCGACUGGAGCCGUUCGGGCGGCUAUAAACAGACCUCAGGCCCGAAGCGUGGCGGCACCUGCCGCCGGUGGUAAAAAAGAUCGGAAGAGCACACGUCU [U7A G9A U10C C12A C13A] | 1.13
9 | GGGUCGAUACUAUAUAAUCGCGUGGAUAUGGCACGCAAGUUUCUACCGGGCACCGUAAAUGUCCGACUGGAGCCGUUCGGGCGGCUAUAAACAGACCUCAGGCCCGAAGCGUGGCGGCACCUGCCGCCGGUGGUAAAAAAGAUCGGAAGAGCACACGUCU [U7A G9A U10C C12A C13U] | 1.21
10 | GGGUCGAUAAGCUAUAAUCGCGUGGAUAUGGCACGCAAGUUUCUACCGGGCACCGUAAAUGUCCGACUGGAGCCGUUCGGGCGGCUAUAAACAGACCUCAGGCCCGAAGCGUGGCGGCACCUGCCGCCGGUGGUAAAAAAGAUCGGAAGAGCACACGUCU [U7A G9A U10A U11G C13U] | 1.12
11 | GGGUCGAUAAGCAAUAAUCGCGUGGAUAUGGCACGCAAGUUUCUACCGGGCACCGUAAAUGUCCGACUGGAGCCGUUCGGGCGGCUAUAAACAGACCUCAGGCCCGAAGCGUGGCGGCACCUGCCGCCGGUGGUAAAAAAGAUCGGAAGAGCACACGUCU [U7A G9A U10A U11G C13A] | 1.29
12 | GGGUCGAUAAGCGAUAAUCGCGUGGAUAUGGCACGCAAGUUUCUACCGGGCACCGUAAAUGUCCGACUGGAGCCGUUCGGGCGGCUAUAAACAGACCUCAGGCCCGAAGCGUGGCGGCACCUGCCGCCGGUGGUAAAAAAGAUCGGAAGAGCACACGUCU [U7A G9A U10A U11G C13G] | 1.11
13 | GGGUCGAUAAGUGAUAAUCGCGUGGAUAUGGCACGCAAGUUUCUACCGGGCACCGUAAAUGUCCGACUGGAGCCGUUCGGGCGGCUAUAAACAGACCUCAGGCCCGAAGCGUGGCGGCACCUGCCGCCGGUGGUAAAAAAGAUCGGAAGAGCACACGUCU [U7A G9A U10A U11G C12U C13G] | 1.15
14 | GGGUCGAUAAGUAAUAAUCGCGUGGAUAUGGCACGCAAGUUUCUACCGGGCACCGUAAAUGUCCGACUGGAGCCGUUCGGGCGGCUAUAAACAGACCUCAGGCCCGAAGCGUGGCGGCACCUGCCGCCGGUGGUAAAAAAGAUCGGAAGAGCACACGUCU [U7A G9A U10A U11G C12U C13A] | 1.17
15 | GGGUCGAUAAGUUAUAAUCGCGUGGAUAUGGCACGCAAGUUUCUACCGGGCACCGUAAAUGUCCGACUGGAGCCGUUCGGGCGGCUAUAAACAGACCUCAGGCCCGAAGCGUGGCGGCACCUGCCGCCGGUGGUAAAAAAGAUCGGAAGAGCACACGUCU [U7A G9A U10A U11G C12U C13U] | 1.42
16 | GGGUCGAUACUUCAUAAUCGCGUGGAUAUGGCACGCAAGUUUCUACCGGGCACCGUAAAUGUCCGACUGGAGCCGUUCGGGCGGCUAUAAACAGACCUCAGGCCCGAAGCGUGGCGGCACCUGCCGCCGGUGGUAAAAAAGAUCGGAAGAGCACACGUCU [U7A G9A U10C C12U] | 1.26
17 | GGGUCGAUACUGCAUAAUCGCGUGGAUAUGGCACGCAAGUUUCUACCGGGCACCGUAAAUGUCCGACUGGAGCCGUUCGGGCGGCUAUAAACAGACCUCAGGCCCGAAGCGUGGCGGCACCUGCCGCCGGUGGUAAAAAAGAUCGGAAGAGCACACGUCU [U7A G9A U10C C12G] | 1.34
18 | GGGUCGAUACUACAUAAUCGCGUGGAUAUGGCACGCAAGUUUCUACCGGGCACCGUAAAUGUCCGACUGGAGCCGUUCGGGCGGCUAUAAACAGACCUCAGGCCCGAAGCGUGGCGGCACCUGCCGCCGGUGGUAAAAAAGAUCGGAAGAGCACACGUCU [U7A G9A U10C C12A] | 1.43
